In patent US20120093787A1:

Experiments:
[1] = target: wild-type CXCR4 isoform B (X4b-WT), expressed on CXCR4-/- B4 SupT1 cells by lentiviral transduction (UniProt P61073); assay: flow cytometry on X4b WT B4 SupT1 transfectants, PE goat anti-mIgG detection
[2] = target: C34-CXCR4 isoform B fusion protein (C34-X4b), expressed on CXCR4-/- B4 SupT1 cells by lentiviral transduction (Pan troglodytes (Chimpanzee)) (UniProt P61072); assay: flow cytometry on C34-X4b B4 SupT1 transfectants, PE goat anti-mIgG detection
Chain of UniProt P61072 (P61072 1-352, tags or fused parts left off): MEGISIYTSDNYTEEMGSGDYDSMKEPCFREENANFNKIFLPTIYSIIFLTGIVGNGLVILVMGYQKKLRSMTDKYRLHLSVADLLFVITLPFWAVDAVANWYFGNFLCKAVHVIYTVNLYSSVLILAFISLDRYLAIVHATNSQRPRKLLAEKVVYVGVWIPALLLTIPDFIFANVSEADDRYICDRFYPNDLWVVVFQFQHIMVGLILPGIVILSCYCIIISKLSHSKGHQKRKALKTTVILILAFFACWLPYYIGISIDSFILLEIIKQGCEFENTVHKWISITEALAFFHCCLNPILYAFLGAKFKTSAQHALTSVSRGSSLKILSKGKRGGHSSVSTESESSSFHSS

Chain of UniProt P61073 (P61073 whole entry, the tested form may be a part, canonical isoform): as the sequence (P61072 1-352, tags or fused parts left off) above

Substance | MFI [1] [MFI] | positively stained cells (%) [1] [%] | MFI [2] [MFI] | positively stained cells (%) [2] [%]
anti-CXCR4 monoclonal antibody 12G5 (BD Biosciences) | 214 | 95.8 | 253 | 96.6
isotype control mIgG1 (antibody) |  | 0 |  | 0
isotype control mIgG2a (antibody) |  | 0.98 |  | 0.39
